Drawing on article PMC4078514 (2014), this text covers Kd for three molecules.

B1: [99mTc(CO)3(14)] BBS-shepherdin(79-83) conjugate (peptide)
chain: QWAVGHL
modifications: not fully specified (C-terminus); also: (βAla)3 spacer, triazole-Lys 99mTc(CO)3 chelate, succinyl-linked shepherdin KHSSG
B2: [99mTc(CO)3(15)] BBS-scrambled shepherdin(79-83) conjugate (peptide)
chain: QWAVGHL
modifications: not fully specified (C-terminus); also: (βAla)3 spacer, triazole-Lys 99mTc(CO)3 chelate, succinyl-linked scrambled shepherdin SGKHS
B3: [99mTc(CO)3(16)] BBS reference conjugate (peptide)
chain: QWAVGHL
modifications: not fully specified (N-terminus, C-terminus); also: triazole 99mTc(CO)3 chelate, methyl group in place of shepherdin

No end group written: not given here.

The target in this assay is gastrin-releasing peptide receptor (GRP-r) (Homo sapiens, UniProt P30550). Kind of assay: radioligand saturation binding on PC-3 cells.
Chain of gastrin-releasing peptide receptor (GRP-r) (P30550 whole entry): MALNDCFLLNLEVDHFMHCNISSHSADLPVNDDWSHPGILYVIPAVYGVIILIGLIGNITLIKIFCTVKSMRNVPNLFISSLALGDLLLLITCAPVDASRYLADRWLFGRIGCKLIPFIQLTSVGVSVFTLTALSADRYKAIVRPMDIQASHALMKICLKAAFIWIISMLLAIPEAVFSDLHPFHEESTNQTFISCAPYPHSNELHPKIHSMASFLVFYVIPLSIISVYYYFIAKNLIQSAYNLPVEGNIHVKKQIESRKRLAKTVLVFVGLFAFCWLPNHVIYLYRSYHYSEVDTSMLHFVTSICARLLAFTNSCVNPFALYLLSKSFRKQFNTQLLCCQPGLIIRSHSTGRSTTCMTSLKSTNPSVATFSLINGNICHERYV
Consider B1, for which the Kd (commonly the concentration at which binding is half-saturated) was determined as 10.9 nM. In the case of B2 it was 11.3 nM; in that of B3, 5.6 nM.
